From paper PMC10691696, “ZmEREB92 plays a negative role in seed germination by regulating ethylene signaling and starch mobilization in maize”

Biological target: ZmEREB92 (Zea mays, UniProt B6SIZ8 1-233)
Assay: EMSA; 200x unlabeled probe used as competitor; EMSA: 0.2 pmol biotin probe with ZmEREB92-His, 30 min at 28 °C, 6.5% native PAGE, chemiluminescence kit (Beyotime); buffer, salt and pH not given
Details: protein: recombinant; tags: His-tag (C-terminal as stated; pET32a vector); label: biotin; blunt

ZmEREB92, sequence (B6SIZ8 entry or part of it): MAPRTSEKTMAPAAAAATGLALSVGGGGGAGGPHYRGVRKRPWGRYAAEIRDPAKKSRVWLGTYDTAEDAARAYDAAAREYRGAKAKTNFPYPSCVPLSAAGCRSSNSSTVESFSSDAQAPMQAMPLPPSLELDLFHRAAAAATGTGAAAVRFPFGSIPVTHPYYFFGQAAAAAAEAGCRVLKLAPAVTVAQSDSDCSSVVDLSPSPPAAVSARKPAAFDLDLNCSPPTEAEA

B1: pAMYa2-A (dsDNA)
DNA 1: TCAAGAATTTAAGGCGGCGAAAGCCGAC
DNA 2: GTCGGCTTTCGCCGCCTTAAATTCTTGA
  binding result: binds

B2: pAMYa2-C (dsDNA)
DNA 1: TCGTCGTCTCGCCGCCGCCGCCGCCGCCGCAACGGGTCT
DNA 2: AGACCCGTTGCGGCGGCGGCGGCGGCGGCGAGACGACGA
  binding result: binds
